Columns and labels:
Test in all cases: purified protein
Format in all cases: biochemical, Dehalococcoides mccartyi
purified protein [1] = substrate: NC(=O)c1ccc[n+]([C@@H]2O[C@H](COP(=O)(O)OP(=O)(O)OC[C@H]3O[C@@H](n4cnc5c(N)ncnc54)[C@H](O)[C@@H]3O)[C@@H](O)[C@H]2O)c1; conditions: D-isocitric acid as co-substrate (1 mM in standard assay), 10 mM MgCl2, 50 mM Tris-HCl pH 7.5 (standard assay; kinetics at selected pH), 30 °C, varied: cofactor
purified protein [2] = substrate: O=C(O)C[C@H](C(=O)O)[C@@H](O)C(=O)O; conditions: 0.3 mM NADP+, 10 mM MgCl2, 50 mM Tris-HCl pH 7.5 (standard assay; kinetics at selected pH), 30 °C
purified protein [3] = substrate: NC(=O)c1ccc[n+]([C@@H]2O[C@H](COP(=O)(O)OP(=O)(O)OC[C@H]3O[C@@H](n4cnc5c(N)ncnc54)[C@H](OP(=O)(O)O)[C@@H]3O)[C@@H](O)[C@H]2O)c1; conditions: D-isocitric acid as co-substrate (1 mM in standard assay), 10 mM MgCl2, 50 mM Tris-HCl pH 7.5 (standard assay; kinetics at selected pH), 30 °C, varied: cofactor

B1: DmIDH (KB1_0495) (Dehalococcoides mccartyi CBDB1) (protein)
chain: MYHNVTLIPGDGIGPEISEATRRVLEATGVKFNWEVVNAGADVVAEYGTPLPDMVLESIRKNKVAIKGPVTTPVGSGFRSVNVGMRKALNLYTCLRPCKTYPGVPSRYDNVDIVIVRENMEDLYAGIEFEKGSAEALRLIEFIKENKKVEIRTDSGISIKPISVFGTERIFRWAFKYAKDNNRKKVTAVHKANIMKYSDGLFLAVGRKVAEEYPEIEFEDRIVDNMTMQLVKTPTQFDILVCPNLYGDILSDLCAGLVGGLGVAPGANIGDEYALFEPTHGSAPKYKGLNKVNPMAMMLSGVLMLRYLKEEKAADKLENAIAAVIAEGKSVTYDMLSPDKQAVAVGTSQVADAIIAKMK
notes: recombinant, N-terminal 6xHis tag with TEV site (modified pET-15b), E. coli BL21(DE3), Ni-NTA and gel filtration
Protein B1 has a Km (purified protein [1]) of 120 ± 40 µM, a Vmax (purified protein [1]) of 0.32 µmol/min/mg and a kcat (purified protein [1]) of 0.22 ± 0.03 s⁻¹. It also gave a kcat/Km (purified protein [1]) of 2000 ± 1000 M⁻¹ s⁻¹, a Km (purified protein [2]) of 110 ± 10 µM and a Vmax (purified protein [2]) of 21.3 µmol/min/mg. The kcat (purified protein [2]) was 15 ± 1 s⁻¹, the kcat/Km (purified protein [2]) was 139600 ± 1000 M⁻¹ s⁻¹ and the Km (purified protein [3]) was 27 ± 20 µM. For the same protein, the Vmax (purified protein [3]) was 20.8 µmol/min/mg, the kcat (purified protein [3]) was 14.6 ± 1 s⁻¹ and the kcat/Km (purified protein [3]) was 540000 ± 1000 M⁻¹ s⁻¹.

Source: publication PMC4720418, “Experimental validation of in silico model‐predicted isocitrate dehydrogenase and phosphomannose isomerase from D ehalococcoides mccartyi” (Microbial Biotechnology, 2015)
